The subject of series [1] is HeLa Kyoto. Nature of the series: solubility in G1/S (NP-40 vs SDS abundance) (log2 ratio); higher = more soluble. The note with it: cell cycle stage: G1/S.
Series [2] deals with HeLa Kyoto. Briefly: melting temperature (median over replicates), in situ; higher = more thermally stable.
Series [3] relates to HeLa Kyoto. Nature of the series: solubility change mitosis vs G1/S (difference of NP-40 vs SDS log2 ratios) (log2 ratio difference); higher = more soluble in mitosis.
The test system of series [4] is HeLa Kyoto. Nature of the series: thermal stability score vs G1/S (z-score of summed log2 fold changes over temperatures); higher = more thermally stable than in G1/S.
Where [5] appears, read: cell cycle stage: early G1 (4.5 h after nocodazole release).
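For melting temperature (median over replicates), in situ in this document: HeLa Kyoto cells synchronized by double thymidine or nocodazole block, proteins quantified by TMT10plex mass spectrometry, three independent biological replicates.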
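For solubility change mitosis vs G1/S (difference of NP-40 vs SDS log2 ratios) in this document: synchronized HeLa Kyoto cells (double thymidine block for G1/S, nocodazole release for mitosis), protein amounts in NP-40 versus SDS lysates quantified by mass spectrometry, three biological replicates.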
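For solubility in G1/S (NP-40 vs SDS abundance) in this document: HeLa Kyoto cells arrested at G1/S by double thymidine block, proteins quantified by TMT10plex mass spectrometry in mild NP-40 versus SDS extracts, three biological replicates.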
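For thermal stability score vs G1/S (z-score of summed log2 fold changes over temperatures) in this document: synchronized HeLa Kyoto cells, proteins quantified by TMT10plex mass spectrometry, three biological replicates, mitosis taken 0.5 h after nocodazole release, G1/S directly after double thymidine block.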

For the sequence “MKPRPAGFVDNKLKQRVIQYLTSNKCGKYVDIGVLASDLQRVYSIDYGRRKRNAFRIQVEKVFSIISSEKELKNLTELEDEHLAKRARQGEEDNEYTESYSDDDSSMEDYPDPQSANHMNSSLLSLYRKGNPDSVSNTPEMEQRETTSSTPRISSKTGSIPLKTPAKDSEGGWFIDKTPSVKKDSFFLDLSCEKSNPKKPITEIQDSKDSSLLESDMKRKGKLKNKGSKRKKEDLQEVDGEIEAVLQKKAKARGLEFQISNVKFEDVGGNDMTLKEVCKMLIHMRHPEVYHHLGVVPPRGVLLHGPPGCGKTLLAHAIAGELDLPILKVAAPEIVSGVSGESEQKLRELFEQAVSNAPCIIFIDEIDAITPKREVASKDMERRIVAQLLTCMDDLNNVAATARVLVIGATNRPDSLDPALRRAGRFDREICLGIPDEASRERILQTLCRKLRLPQAFDFCHLAHLTPGFVGADLMALCREAAMCAVNRVLMKLQEQQKKNPEMEDLPSKGVQEERLGTEPTSETQDELQRLLGLLRDQDPLSEEQMQGLCIELNDFIVALSSVQPSAKREGFVTVPNVTWADIGALEDIREELTMAILAPVRNPDQFKALGLVTPAGVLLAGPPGCGKTLLAKAVANESGLNFISVKGPELLNMYVGESERAVRQVFQRAKNSAPCVIFFDEVDALCPRRSDRETGASVRVVNQLLTEMDGLEARQQVFIMAATNRPDIIDPAILRPGRLDKTLFVGLPPPADRLAILKTITKNGTKPPLDADVNLEAIAGDLRCDCYTGADLSALVREASICALRQEMARQKSGNEKGELKVSHKHFEEAFKKVRSSISKKDQIMYERLQESLSR [NVL]”, the “solubility in G1/S (log2)” value in the series on HeLa Kyoto [1] was -1.77. Moreover, the melting temperature with HeLa Kyoto [2] (cell cycle stage: G1/S) was 53.8 °C; with HeLa Kyoto [2] (cell cycle stage: mitosis) it was 52.7 °C. For the same sequence, in the series on HeLa Kyoto [3], the “solubility change mitosis (log2)” value is 0.882. Further, the values for the thermal stability score in the series with HeLa Kyoto [4] (setting [5]) and in the series with HeLa Kyoto [4] (cell cycle stage: mitosis) were 1.41 and 1.19, respectively.
In the case of “MKRRLDDQESPVYAAQQRRIPGSTEAFPHQHRVLAPAPPVYEAVSETMQSATGIQYSVTPSYQVSAMPQSSGSHGPAIAAVHSSHHHPTAVQPHGGQVVQSHAHPAPPVAPVQGQQQFQRLKVEDALSYLDQVKLQFGSQPQVYNDFLDIMKEFKSQSIDTPGVISRVSQLFKGHPDLIMGFNTFLPPGYKIEVQTNDMVNVTTPGQVHQIPTHGIQPQPQPPPQHPSQPSAQSAPAPAQPAPQPPPAKVSKPSQLQAHTPASQQTPPLPPYASPRSPPVQPHTPVTISLGTAPSLQNNQPVEFNHAINYVNKIKNRFQGQPDIYKAFLEILHTYQKEQRNAKEAGGNYTPALTEQEVYAQVARLFKNQEDLLSEFGQFLPDANSSVLLSKTTAEKVDSVRNDHGGTVKKPQLNNKPQRPSQNGCQIRRHPTGTTPPVKKKPKLLNLKDSSMADASKHGGGTESLFFDKVRKALRSAEAYENFLRCLVIFNQEVISRAELVQLVSPFLGKFPELFNWFKNFLGYKESVHLETYPKERATEGIAMEIDYASCKRLGSSYRALPKSYQQPKCTGRTPLCKEVLNDTWVSFPSWSEDSTFVSSKKTQYEEHIYRCEDERFELDVVLETNLATIRVLEAIQKKLSRLSAEEQAKFRLDNTLGGTSEVIHRKALQRIYADKAADIIDGLRKNPSIAVPIVLKRLKMKEEEWREAQRGFNKVWREQNEKYYLKSLDHQGINFKQNDTKVLRSKSLLNEIESIYDERQEQATEENAGVPVGPHLSLAYEDKQILEDAAALIIHHVKRQTGIQKEDKYKIKQIMHHFIPDLLFAQRGDLSDVEEEEEEEMDVDEATGAVKKHNGVGGSPPKSKLLFSNTAAQKLRGMDEVYNLFYVNNNWYIFMRLHQILCLRLLRICSQAERQIEEENREREWEREVLGIKRDKSDSPAIQLRLKEPMDVDVEDYYPAFLDMVRSLLDGNIDSSQYEDSLREMFTIHAYIAFTMDKLIQSIVRQLQHIVSDEICVQVTDLYLAENNNGATGGQLNTQNSRSLLESTYQRKAEQLMSDENCFKLMFIQSQGQVQLTIELLDTEEENSDDPVEAERWSDYVERYMNSDTTSPELREHLAQKPVFLPRNLRRIRKCQRGREQQEKEGKEGNSKKTMENVDSLDKLECRFKLNSYKMVYVIKSEDYMYRRTALLRAHQSHERVSKRLHQRFQAWVDKWTKEHVPREMAAETSKWLMGEGLEGLVPCTTTCDTETLHFVSINKYRVKYGTVFKAP [SIN3A]”, the “solubility in G1/S (log2)” value in the series with HeLa Kyoto [1] was -0.136. The results for the melting temperature with HeLa Kyoto [2] (cell cycle stage: G1/S) and in the series with HeLa Kyoto [2] (cell cycle stage: mitosis) were 48.4 °C and 49.5 °C, respectively. Also, the “solubility change mitosis (log2)” value in the series on HeLa Kyoto [3] was -0.073. For the same sequence, the thermal stability score with HeLa Kyoto [4] (setting [5]) was found to be 1.76; in the series with HeLa Kyoto [4] (cell cycle stage: mitosis), 4.27.
Take “MKRSGTLRLLSDLSAFGGAARLRELVAGDSAVRVRGSPDGRHLLLLRPPGAVAPQLLVASRGPGAELERAWPAGQPSPLDAFFLPWPARPALVLVWESGLAEVWGAGVGPGWRPLQSTELCPGGGARVVAVAALRGRLVWCEERQARAEGPSGSPAAAFSHCVCVRTLEPSGEASTSLGRTHVLLHHCPAFGLLASCRQLFLVPTATTWPGVAHVLLIWSPGKGKVMVAAPRLGLSYSKSLNPGRGDTWDFRTLLRGLPGLLSPREPLAVHTWAPTPQGLLLLDFGGTVSLLQSHGGTRAVGTLQEAPVGPWGSAALGTFQGTLACVLGSTLELLDMGSGQLLERKVLSTDRVHLLEPPAPGMEDEEELETRGNLRLLSALGLFCVGWEAPQGVELPSAKDLVFEEACGYYQRRSLRGAQLTPEELRHSSTFRAPQALASILQGHLPPSALLTMLRTELRDYRGLEQLKAQLVAGDDEEAGWTELAEQEVARLLRTELIGDQLAQLNTVFQALPTAAWGATLRALQLQLDGNGKLRSQAPPDVWKKVLGGITAGKEPPNGILPPFELLCQCLCQLEPRWLPPFVELAQQQGGPGWGAGGPGLPLYRRALAVLGEEGTRPEALELELLLSSGRPKAVLQAVGQLVQKEQWDRALDAGLALGPSSPLLRSEIFKLLLAEFAQHRRLDAHLPLLCRLCPPELAPAELLLLLRTYLPDEVGPPTPFPEPGAEPPLTVGLLKALLEQTGAQGWLSGPVLSPYEDILWDPSTPPPTPPRDL [HPS6]”: in the series on HeLa Kyoto [1], the “solubility in G1/S (log2)” value is 0.12. In addition, the values for the melting temperature in the series with HeLa Kyoto [2] (cell cycle stage: G1/S) and with HeLa Kyoto [2] (cell cycle stage: mitosis) were 49.3 °C and 49.1 °C, respectively. In addition, the “solubility change mitosis (log2)” value with HeLa Kyoto [3] is -0.149. The thermal stability score with HeLa Kyoto [4] (setting [5]) came to 0.139; in the series with HeLa Kyoto [4] (cell cycle stage: mitosis), 0.929.
Turning to “MKRSSVSSGGAGRLSMQELRSQDVNKQGLYTPQTKEKPTFGKLSINKPTSERKVSLFGKRTSGHGSRNSQLGIFSSSEKIKDPRPLNDKAFIQQCIRQLCEFLTENGYAHNVSMKSLQAPSVKDFLKIFTFLYGFLCPSYELPDTKFEEEVPRIFKDLGYPFALSKSSMYTVGAPHTWPHIVAALVWLIDCIKIHTAMKESSPLFDDGQPWGEETEDGIMHNKLFLDYTIKCYESFMSGADSFDEMNAELQSKLKDLFNVDAFKLESLEAKNRALNEQIARLEQEREKEPNRLESLRKLKASLQGDVQKYQAYMSNLESHSAILDQKLNGLNEEIARVELECETIKQENTRLQNIIDNQKYSVADIERINHERNELQQTINKLTKDLEAEQQKLWNEELKYARGKEAIETQLAEYHKLARKLKLIPKGAENSKGYDFEIKFNPEAGANCLVKYRAQVYVPLKELLNETEEEINKALNKKMGLEDTLEQLNAMITESKRSVRTLKEEVQKLDDLYQQKIKEAEEEDEKCASELESLEKHKHLLESTVNQGLSEAMNELDAVQREYQLVVQTTTEERRKVGNNLQRLLEMVATHVGSVEKHLEEQIAKVDREYEECMSEDLSENIKEIRDKYEKKATLIKSSEE [NDC80]”, in the series with HeLa Kyoto [1], the “solubility in G1/S (log2)” value is 0.548. Also, the melting temperature in the series with HeLa Kyoto [2] (cell cycle stage: G1/S) worked out at 47.4 °C; in the series on HeLa Kyoto [2] (cell cycle stage: mitosis), 47.7 °C. Moreover, in the series on HeLa Kyoto [3], the “solubility change mitosis (log2)” value is 0.0863. Besides, the thermal stability score in the series with HeLa Kyoto [4] (setting [5]) stood at 0.223; in the series with HeLa Kyoto [4] (cell cycle stage: mitosis), 0.715.
Take “MKRSVAVWLLVGLSLGVPQFGKGDICDPNPCENGGICLPGLADGSFSCECPDGFTDPNCSSVVEVASDEEEPTSAGPCTPNPCHNGGTCEISEAYRGDTFIGYVCKCPRGFNGIHCQHNINECEVEPCKNGGICTDLVANYSCECPGEFMGRNCQYKCSGPLGIEGGIISNQQITASSTHRALFGLQKWYPYYARLNKKGLINAWTAAENDRWPWIQINLQRKMRVTGVITQGAKRIGSPEYIKSYKIAYSNDGKTWAMYKVKGTNEDMVFRGNIDNNTPYANSFTPPIKAQYVRLYPQVCRRHCTLRMELLGCELSGCSEPLGMKSGHIQDYQITASSIFRTLNMDMFTWEPRKARLDKQGKVNAWTSGHNDQSQWLQVDLLVPTKVTGIITQGAKDFGHVQFVGSYKLAYSNDGEHWTVYQDEKQRKDKVFQGNFDNDTHRKNVIDPPIYARHIRILPWSWYGRITLRSELLGCTEEE [EDIL3]”: in the series on HeLa Kyoto [1], the “solubility in G1/S (log2)” value was -0.122. The melting temperature with HeLa Kyoto [2] (cell cycle stage: mitosis) amounted to 55.6 °C. For the same sequence, the “solubility change mitosis (log2)” value in the series with HeLa Kyoto [3] was -0.0391. Further, the thermal stability score worked out at 1.05 with HeLa Kyoto [4] (setting [5]) and 0.661 with HeLa Kyoto [4] (cell cycle stage: mitosis).
In the case of “MKSARAKTPRKPTVKKGSQTNLKDPVGVYCRVRPLGFPDQECCIEVINNTTVQLHTPEGYRLNRNGDYKETQYSFKQVFGTHTTQKELFDVVANPLVNDLIHGKNGLLFTYGVTGSGKTHTMTGSPGEGGLLPRCLDMIFNSIGSFQAKRYVFKSNDRNSMDIQCEVDALLERQKREAMPNPKTSSSKRQVDPEFADMITVQEFCKAEEVDEDSVYGVFVSYIEIYNNYIYDLLEEVPFDPIKPKPPQSKLLREDKNHNMYVAGCTEVEVKSTEEAFEVFWRGQKKRRIANTHLNRESSRSHSVFNIKLVQAPLDADGDNVLQEKEQITISQLSLVDLAGSERTNRTRAEGNRLREAGNINQSLMTLRTCMDVLRENQMYGTNKMVPYRDSKLTHLFKNYFDGEGKVRMIVCVNPKAEDYEENLQVMRFAEVTQEVEVARPVDKAICGLTPGRRYRNQPRGPVGNEPLVTDVVLQSFPPLPSCEILDINDEQTLPRLIEALEKRHNLRQMMIDEFNKQSNAFKALLQEFDNAVLSKENHMQGKLNEKEKMISGQKLEIERLEKKNKTLEYKIEILEKTTTIYEEDKRNLQQELETQNQKLQRQFSDKRRLEARLQGMVTETTMKWEKECERRVAAKQLEMQNKLWVKDEKLKQLKAIVTEPKTEKPERPSRERDREKVTQRSVSPSPVPLSSNYIAQISNGQQLMSQPQLHRRSNSCSSISVASCISEWEQKIPTYNTPLKVTSIARRRQQEPGQSKTCIVSDRRRGMYWTEGREVVPTFRNEIEIEEDHCGRLLFQPDQNAPPIRLRHRRSRSAGDRWVDHKPASNMQTETVMQPHVPHAITVSVANEKALAKCEKYMLTHQELASDGEIETKLIKGDIYKTRGGGQSVQFTDIETLKQESPNGSRKRRSSTVAPAQPDGAESEWTDVETRCSVAVEMRAGSQLGPGYQHHAQPKRKKP [KIF23]”, in the series on HeLa Kyoto [1], the “solubility in G1/S (log2)” value was -0.255. The melting temperature worked out at 49.3 °C in the series on HeLa Kyoto [2] (cell cycle stage: G1/S) and 49.6 °C in the series on HeLa Kyoto [2] (cell cycle stage: mitosis). Also, the “solubility change mitosis (log2)” value in the series on HeLa Kyoto [3] was -0.112. Besides, the thermal stability score stood at 0.0501 with HeLa Kyoto [4] (setting [5]) and 0.448 in the series on HeLa Kyoto [4] (cell cycle stage: mitosis).

The record behind these values is the supplement of paper PMC5998384.
